From publication PMC5584141 (The Journal of Cell Biology, 2017)
Changes are numbered by the printed parent chain.

T1: GPC6-AP fusion protein (UniProt Q9R087 24-530, carries glycosaminoglycan (GAG) chains; biotinylated with EZ-link Sulfo-NHS-LC biotin for SPR)
T1 sequence: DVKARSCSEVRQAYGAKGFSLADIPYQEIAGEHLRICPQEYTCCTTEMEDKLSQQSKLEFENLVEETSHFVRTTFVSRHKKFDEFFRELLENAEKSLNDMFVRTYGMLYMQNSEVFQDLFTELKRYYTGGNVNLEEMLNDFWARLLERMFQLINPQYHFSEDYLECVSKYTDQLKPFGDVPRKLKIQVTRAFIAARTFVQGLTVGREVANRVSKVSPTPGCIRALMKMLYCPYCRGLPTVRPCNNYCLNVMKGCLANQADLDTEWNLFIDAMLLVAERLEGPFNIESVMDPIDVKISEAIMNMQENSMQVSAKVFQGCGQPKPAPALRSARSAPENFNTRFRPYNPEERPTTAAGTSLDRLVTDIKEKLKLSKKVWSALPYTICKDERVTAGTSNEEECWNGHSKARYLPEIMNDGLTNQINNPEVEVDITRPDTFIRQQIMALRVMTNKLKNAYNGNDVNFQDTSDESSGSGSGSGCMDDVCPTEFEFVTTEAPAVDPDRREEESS

B1: recombinant Ihh (ligand)
chain: not shown
B2: GPC6ΔGAG-AP fusion protein (natural protein)
chain: T1 sequence with S470A, S472A, S474A, S476A
modifications: biotinylated with EZ-link Sulfo-NHS-LC biotin for SPR

Legend:
Experiment in all cases: SPR
GPC6-AP fusion protein = molecular target: T1, GPC6-AP fusion protein
recombinant Shh = recombinant Shh (UniProt Q62226 25-198)
recombinant Ihh = molecular target: B1
Chain of recombinant Ihh (P97812 28-202): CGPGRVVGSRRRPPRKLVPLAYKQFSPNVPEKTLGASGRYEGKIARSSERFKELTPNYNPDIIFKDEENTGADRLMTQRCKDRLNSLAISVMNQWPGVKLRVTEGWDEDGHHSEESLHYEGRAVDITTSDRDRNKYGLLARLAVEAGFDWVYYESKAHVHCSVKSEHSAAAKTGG

Chain of recombinant Shh (Q62226 25-198): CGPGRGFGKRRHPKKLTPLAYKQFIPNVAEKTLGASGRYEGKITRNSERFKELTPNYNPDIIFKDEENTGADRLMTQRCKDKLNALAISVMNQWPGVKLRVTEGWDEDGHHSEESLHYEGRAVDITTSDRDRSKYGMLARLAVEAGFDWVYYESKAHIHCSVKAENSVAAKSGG

Binder | Kd (GPC6-AP fusion protein) | Kd (recombinant Shh) | Kd (recombinant Ihh)
B1 | 14 nM | – | –
B2 | – | 21 nM | 16 nM
